Measured values reported in patent US20240115717A1 (VRG THERAPEUTICS KFT, published 2024).

Molecular target: phage-displayed CTXD of SEQ ID NO: 24 (bacteriophage M13)
Assay: Co-bead test, phage display (FIG. 3)

B1: his-tagged MMP-2 (Co-bead test; ProSpec #ENZ-769) (enzyme)
chain: YNFFPRKPKWDKNQITYRIIGYTPDLDPETVDDAFARAFQVWSDVTPLRFSRIHDGEADIMINFGRWEHGDGYPFDGKDGLLAHAFAPGTGVGGDSHFDDDELWTLGEGQVVRVKYGNADGEYCKFPFLFNGKEYNSCTDTGRSDGFLWCSTTYNFEKDGKYGFCPHEALFTMGGNAEGQPCKFPFRFQGTSYDSCTTEGRTDGYRWCGTTEDYDRDKKYGFCPETAMSTVGGNSEGAPCVFPFTFLGNKYESCTSAGRSDGKMWCATTANYDDDRKWGFCPDQGYSLFLVAAHEFGHAMGLEHSQDPGALMAPIYTYTKNFRLSQDDIKGIQELYGASPDIDLGTGPTPTLGPVTPEICKQDIVFDGIAQIRGEIFFFKDRFIWRTVTPRDKPMGPLLVATFWPELPEKIDAVYEAPQEEKAVFFAGNEYWIYSASTLERGYPKPLTSLGLPPDVQRVDAAFNWSKNKKTYIFAGDKFWRYNEVKKKMDPGFPKLIADAWNAIPDNLDAVVDLQGGGHSYFFKGAYYLKLENQSLKSVKFGSIKSDWLGC
notes: range 110-660; also called matrix metalloproteinase 2
  binding result: binds
